Data: paper PMC9278091, “ATP‐independent molecular chaperone activity generated under reducing conditions” (Protein Science : A Publication of the Protein Society, 2022)
Numbering of substitutions follows the chain as printed. Numbers in names are those of the source. Where “and” joins values, the source holds several entries; their conditions need not be identical. Equal values may be shown once.

B1: Bri2 BRICHOS domain (residues 113-231 of full-length human Bri2), wild type (domain or fragment, UniProt Q9Y287 113-231, looked up)
chain: QTIEENIKIFEEEEVEFISVPVPEFADSDPANIVHDFNKKLTAYLDLNLDKCYVIPLNTSIVMPPRNLLELLINIKAGTYLPQSYLIHEHMVITDRIENIDHLGFFIYRLCHDKETYKL
notes: Bri2 (integral membrane protein 2B), human, BRICHOS domain, residues 113-231 of full-length human Bri2; In the monomer Cys164 and Cys223 form an intramolecular disulfide; dimers and oligomers have intermolecular disulfides; also called Bri2 BRICHOS monomers; Bri2 BRICHOS dimers; source: E. coli, expressed and purified as previously described (monomer, dimer and oligomer species isolated)
B2: NT*-Bri2 BRICHOScys mutant C164S (NT*-Bri2 BRICHOScys 223-223 dimer) (domain or fragment, human, UniProt Q9Y287 113-231, looked up)
chain: B1 chain with C52S
modifications: intermolecular Cys223-Cys223 homodisulfide
notes: Bri2 (integral membrane protein 2B), human, BRICHOS domain, residues 113-231 of full-length human Bri2, C164S; NT* fusion kept as a means to tell the species apart by size; also called Cys223 dimers; source: E. coli, dimer fraction purified with NT* solubility tag
B3: Bri2 BRICHOScys mutant C164S without NT* tag (Cys223-Cys223 dimer) (domain or fragment, human, UniProt Q9Y287 113-231, looked up)
chain: B1 chain with C52S
modifications: intermolecular Cys223-Cys223 homodisulfide
notes: Bri2 (integral membrane protein 2B), human, BRICHOS domain, residues 113-231 of full-length human Bri2, C164S; also called Cys223 dimers; source: E. coli, dimer fraction purified without NT* solubility tag
B4: NT*-Bri2 BRICHOScys mutant C223S (NT*-Bri2 BRICHOScys 164-164 dimer) (domain or fragment, human, UniProt Q9Y287 113-231, looked up)
chain: B1 chain with C111S
modifications: intermolecular Cys164-Cys164 homodisulfide
notes: Bri2 (integral membrane protein 2B), human, BRICHOS domain, residues 113-231 of full-length human Bri2, C223S; NT* fusion kept as a means to tell the species apart by size; also called Cys164 dimers; source: E. coli, dimer fraction purified with NT* solubility tag
B5: Bri2 BRICHOS Thr to Trp (T206W) mutant (domain or fragment, human, UniProt Q9Y287 113-231, looked up)
chain: B1 chain with T94W
notes: Bri2 (integral membrane protein 2B), human, BRICHOS domain, residues 113-231 of full-length human Bri2, T206W; also called Thr to Trp Bri2 BRICHOS mutant; source: E. coli, expressed and purified as previously described

Assays:
[1] = biological target: the molecule itself; assay: SEC; Bri2 BRICHOS monomers, non-incubated or incubated at 37°C without reductant; 20 mM phosphate buffer, 0.2 mM EDTA, pH 8; monomer to dimers and tetramers
[2] = biological target: the molecule itself; assay: non-reducing SDS-PAGE and Western blot; dimer fractions of the NT*-Bri2 BRICHOScys mutants under non-reducing conditions
[3] = biological target: B2; assay: non-reducing SDS-PAGE and Western blot; dimer fractions of Bri2 BRICHOScys mutants with or without NT* mixed 1:1 at 10 μM final protein, 20 mM phosphate buffer pH 8, 0.2 mM EDTA, 0.02% NaN3, 2.5x thrombin inhibitor, 37°C overnight; mixed disulfide band; conditions: both partners purified
[4] = biological target: the molecule itself; assay: other fluorescence titration; apparent; tryptophan fluorescence emission change upon dimer formation of the T206W mutant, excitation 280 nm, emission 300-400 nm, 96 well plate; single exponential fit; monomer to dimer/assembly

Binder: B1
stoichiometry N [1]: 2 and 4

Binder: B2
binding result [2]: binds

Binder: B3
binding result [3]: binds

Binder: B4
binding result [2]: binds

Binder: B5
Kd [4]: 1000 ± 200 nM
